From publication PMC10786891, “Massively parallel profiling of RNA-targeting CRISPR-Cas13d”
Where a chain is given by its changes, count along the chain named. Names and notes keep the numbering of the source.

T1: EsCas13d, nuclease-dead (Eubacterium siraeum, UniProt B0MS50, R295A;H300A;R849A;H854A)
T1 sequence: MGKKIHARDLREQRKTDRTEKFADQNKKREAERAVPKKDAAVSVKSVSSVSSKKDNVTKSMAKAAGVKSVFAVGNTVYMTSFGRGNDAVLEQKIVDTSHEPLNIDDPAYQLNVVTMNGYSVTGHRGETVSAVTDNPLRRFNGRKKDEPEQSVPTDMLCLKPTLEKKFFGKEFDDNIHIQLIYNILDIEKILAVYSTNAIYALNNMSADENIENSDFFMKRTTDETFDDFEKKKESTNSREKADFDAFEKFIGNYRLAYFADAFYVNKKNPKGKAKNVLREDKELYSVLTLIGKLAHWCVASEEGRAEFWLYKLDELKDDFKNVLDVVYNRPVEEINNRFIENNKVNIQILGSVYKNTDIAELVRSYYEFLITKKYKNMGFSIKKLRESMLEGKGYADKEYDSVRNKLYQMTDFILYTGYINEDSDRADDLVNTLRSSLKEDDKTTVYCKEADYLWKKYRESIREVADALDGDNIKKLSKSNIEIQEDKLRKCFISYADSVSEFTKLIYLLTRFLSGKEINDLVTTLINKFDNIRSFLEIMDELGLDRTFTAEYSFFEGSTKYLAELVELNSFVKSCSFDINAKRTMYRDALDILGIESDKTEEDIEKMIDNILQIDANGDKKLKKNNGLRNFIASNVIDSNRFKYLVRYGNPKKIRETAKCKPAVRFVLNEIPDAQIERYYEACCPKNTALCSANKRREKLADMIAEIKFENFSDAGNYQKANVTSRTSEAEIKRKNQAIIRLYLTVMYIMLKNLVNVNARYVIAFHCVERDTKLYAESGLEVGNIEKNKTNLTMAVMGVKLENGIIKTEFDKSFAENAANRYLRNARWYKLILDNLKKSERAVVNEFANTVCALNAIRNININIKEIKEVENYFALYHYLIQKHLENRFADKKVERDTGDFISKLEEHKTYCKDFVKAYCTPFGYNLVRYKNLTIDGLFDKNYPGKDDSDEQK

B1: target 2 MT 5'PFS AUG 3'PFS UCC (mixed)
RNA 1: CACCCGUGCAAAAUUGCAGGGGUCUAAAACCUUCUCCAAAUUGUUUCAUCCU
RNA 2: GGGAAUGGAUCCACAUCUACGAAUUCAUGAGGAUGAAACAAUUUGGAGAAGUCCAGAUCGGAAGAGCACACGU
B2: target 2 MT 5'PFS GCC 3'PFS AGG (mixed)
RNA 1: B1 RNA 1
RNA 2: B1 RNA 2 with A27G, U28C, G29C, U52A, C53G, C54G
B3: target 2 MT 5'PFS AGG 3'PFS CGC (mixed)
RNA 1: B1 RNA 1
RNA 2: B1 RNA 2 with U28G, U52C, C53G
B4: target 2 MT 5'PFS GCC 3'PFS CGA (mixed)
RNA 1: B1 RNA 1
RNA 2: B1 RNA 2 with A27G, U28C, G29C, U52C, C53G, C54A
B5: target 2 MT 5'PFS AUG 3'PFS UCA (mixed)
RNA 1: B1 RNA 1
RNA 2: B1 RNA 2 with C54A
B6: target 2 MT 5'PFS GGA 3'PFS CUG (mixed)
RNA 1: B1 RNA 1
RNA 2: B1 RNA 2 with A27G, U28G, G29A, U52C, C53U, C54G
B7: target 2 MT 5'PFS GGA 3'PFS CUA (mixed)
RNA 1: B1 RNA 1
RNA 2: B1 RNA 2 with A27G, U28G, G29A, U52C, C53U, C54A
B8: target 2 MT 5'PFS AAA 3'PFS CUC (mixed)
RNA 1: B1 RNA 1
RNA 2: B1 RNA 2 with U28A, G29A, U52C, C53U
B9: target 2 MT 5'PFS GCC 3'PFS CGC (mixed)
RNA 1: B1 RNA 1
RNA 2: B1 RNA 2 with A27G, U28C, G29C, U52C, C53G
B10: target 2 MT 5'PFS GCC 3'PFS AGC (mixed)
RNA 1: B1 RNA 1
RNA 2: B1 RNA 2 with A27G, U28C, G29C, U52A, C53G
B11: target 2 MT 5'PFS UCU 3'PFS AGA (mixed)
RNA 1: B1 RNA 1
RNA 2: B1 RNA 2 with A27U, U28C, G29U, U52A, C53G, C54A
B12: target 2 MT 5'PFS GGA 3'PFS CUC (mixed)
RNA 1: B1 RNA 1
RNA 2: B1 RNA 2 with A27G, U28G, G29A, U52C, C53U
B13: target 2 MT 5'PFS GCC 3'PFS CGG (mixed)
RNA 1: B1 RNA 1
RNA 2: B1 RNA 2 with A27G, U28C, G29C, U52C, C53G, C54G
B14: target 2 MT 5'PFS GUA 3'PFS AAC (mixed)
RNA 1: B1 RNA 1
RNA 2: B1 RNA 2 with A27G, G29A, U52A, C53A
B15: target 2 MT 5'PFS GGA 3'PFS CUU (mixed)
RNA 1: B1 RNA 1
RNA 2: B1 RNA 2 with A27G, U28G, G29A, U52C, C53U, C54U
B16: target 1 insC 3' of 3,insG 3' of 3 (mixed)
RNA 1: CACCCGUGCAAAAAUGCAGGGGUCUAAAACUGAGCGGAUAACCUCUCUAUGG
RNA 2: GGGAAUGGAUCCACAUCUACGAAUUCGUACCAUAGAGAGGUUAUCCGCUCGCACCGAGAUCGGAAGAGCACACGU
B17: target 1 A1G,G13A (mixed)
RNA 1: B16 RNA 1
RNA 2: GGGAAUGGAUCCACAUCUACGAAUUCGUACCAUAGAGAAGUUAUCCGCUCGCCGAGAUCGGAAGAGCACACGU

The binders below were run against T1, EsCas13d, nuclease-dead (assay: crRNA (strand 1, pre-loaded); Mg2+; 40 mM Tris-HCl pH 7.5, 150 mM NaCl, 6 mM MgCl2, 1 mM DTT, 0.1% Tween-20, 0.2 mg/ml BSA; 25 C; 10 min per concentration, then washed). Conditions: tags: His6-TwinStrep-SUMO cleaved; N-terminal SNAP kept (SNAP-Surface 488); label: 3' end held by stalled T7 RNA polymerase.

Binder	Kd
B1	0.0244 ± 0.0028 µM
B2	0.0164 ± 0.0024 µM
B3	0.0047 ± 0.0005 µM
B4	0.014 ± 0.0033 µM
B5	0.015 ± 0.005 µM
B6	0.0092 ± 0.0008 µM
B7	0.0099 ± 0.0013 µM
B8	0.0065 ± 0.0012 µM
B9	0.0114 ± 0.0016 µM
B10	0.0105 ± 0.0012 µM
B11	0.04 ± 0.018 µM
B12	0.0134 ± 0.0015 µM
B13	0.0135 ± 0.0022 µM
B14	0.0062 ± 0.0005 µM
B15	0.0105 ± 0.0008 µM
B16	0.0085 ± 0.0006 µM
B17	0.0062 ± 0.0008 µM
